Test results: publication PMC13142116, “Development and structure-guided characterization of a novel ACE2-binding macrocyclic peptide” (Journal of Structural Biology: X, 2026)
Positions of bridges follow the written chain, without caps; N, C: chain ends. Non-standard residues stand in square brackets, D forms with d. Residues, ends and D or L forms follow the SMILES beside them. *: point of attachment. DOTA = O=C(O)CN1CCN(CC(=O)O)CCN(CC(=O)*)CCN(CC(=O)O)CC1

Assays:
in vitro = in vitro ADME; details: mouse, plasma
Experimental: Additionally, the integrity of [^67Ga]Ga-DOTA-WJL-63 (20 MBq/nmol) in mouse and human blood plasma (Rockland Immunochemicals, Inc. PA, USA and Blood donation SRK Aargau-Solothurn, Switzerland) was determined using thin layer chromatography (TLC). Reversed phase C-18 plates (TLC Silica gel 60 RP-18; Merck) were used as the stationary phase and a mixture of citrate buffer (pH 5.5; 0.1 M) and acetonitrile (7:3; v/v) as the mobile phase. Under these conditions, uncoordinated gallium-67 migrated with the front while the radiopeptide and potential larger fragments migrated to the center of the plate. […] The quantification of the signals was carried out using the OptiQuant software (version 5.0, Bright Instrument Co Ltd., PerkinElmer). The obtained chromatograms were analyzed by determination of the peak area of the radiolabeled peptide, the released gallium-67 as well as degradation products of unknown structure. The quantity of the intact product was expressed as the percentage of the sum of integrated peak areas of the entire chromatogram and set in relation to the value determined at the respective timepoints of the radiopeptide diluted in saline which was set as 100% to correct for TLC artefacts. The results were then expressed as average ± SD from n = 3 independent experiments.

[1] = type: physicochemical
Experimental: The distribution coefficient (logD value) of [^67Ga]Ga-DOTA-WJL-63 was determined using a shake-flask method as previously reported for DX600 radiopeptides ([Beyer et al., 2023]). The distribution coefficients were indicated as the average of n = 3 independent measurements ± standard deviation (SD), each performed with five replicates.

CC[C@H](C)[C@@H]1NC(=O)[C@H](CCC(N)=O)NC(=O)[C@H]([C@@H](C)O)NC(=O)[C@H](CO)NC(=O)[C@@H](Cc2ccc(O)cc2)NC(=O)CSC[C@@H](C(=O)NCC(=O)N[C@@H](CO)C(=O)NCC(=O)N[C@@H](CO)C(=O)NCC(=O)N[C@@H](CO)C(=O)N[C@@H](CCCCNC(=O)CN2CCN(CC(=O)O)CCN(CC(=O)O)CCN(CC(=O)O)CC2)C(N)=O)NC(=O)CNC(=O)[C@H](CCCNC(=N)N)NC(=O)[C@H](CO)NC(=O)[C@H](CC(=O)O)NC(=O)[C@H](CCCNC(=N)N)NC(=O)[C@H]([C@@H](C)O)NC(=O)[C@H](Cc2ccccc2)NC(=O)CNC(=O)[C@H](CCCNC(=N)N)NC(=O)[C@H](CO)NC1=O [[^67Ga]Ga-DOTA-WJL-63, metal not drawn] ({CH2CO}-[dY]STQISRGFTRDSRGCGSGSGSK(DOTA)-NH2; thioether N-16)
remaining at 1 h, 10 MBq/200 µL (in vitro): 91%
remaining at 3 h, 10 MBq/200 µL (in vitro): 69%
logD value [1]: − 4.4 ± 0.1
